One data set addresses T1, ScECM4 (Saccharomyces cerevisiae, UniProt P36156).
T1 construct: gene ECM4; full-length, C-terminal His-tag kept (pET-26b NdeI/XhoI), expressed in E. coli Rosetta2 (DE3) pLysS; dimer
T1 sequence (P36156 1-370): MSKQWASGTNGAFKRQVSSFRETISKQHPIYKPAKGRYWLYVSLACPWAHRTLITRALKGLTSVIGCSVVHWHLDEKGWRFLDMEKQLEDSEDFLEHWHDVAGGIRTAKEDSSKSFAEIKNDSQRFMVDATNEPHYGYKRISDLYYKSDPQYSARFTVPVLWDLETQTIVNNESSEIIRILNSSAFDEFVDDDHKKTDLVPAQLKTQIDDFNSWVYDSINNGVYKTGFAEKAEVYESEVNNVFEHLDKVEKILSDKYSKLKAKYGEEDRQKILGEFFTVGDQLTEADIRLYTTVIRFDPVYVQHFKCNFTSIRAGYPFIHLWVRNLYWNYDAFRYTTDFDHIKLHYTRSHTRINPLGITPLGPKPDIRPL
The experiment in a line: absorbance loss at […] nm; HPLC of menadione at […] nm. The class given is biochemical. The conditions noted are these: GSH 0.05 to 1 mM (spectrophotometry) or 2 mM (HPLC) required; 30 mM Tris-HCl pH 8.0, 1 mM EDTA; room temperature (HPLC).

Data set [1] deals with the molecule itself. Kind of data set: crystal structure; microbatch under paraffin oil at 278 K, 20% PEG 2000 MME, 0.1 M Tris-HCl pH 7.0; space group P2(1), two monomers in the asymmetric unit; apo crystals and crystals soaked with 5 mM GS-menadione.

For the molecule `CC1=C(SC[C@H](NC(=O)CC[C@H](N)C(=O)O)C(=O)NCC(=O)O)C(=O)c2ccccc2C1=O` [GS-menadione], on ScECM4, the “absorbance loss at 430 nm; HPLC of menadione at 250 nm” value is given as “ScECM4 activity measurements stated for reduction of GS-menadione to menadione in presence of glutathione”.

B1: ScECM4 (ECM4 from Saccharomyces cerevisiae, glutathionyl-hydroquinone reductase, Xi-class glutathione transferase) (enzyme, UniProt P36156 1-370, looked up)
chain: T1 sequence (P36156 1-370)
notes: ECM4 (Gto2), Saccharomyces cerevisiae, YKR076W; Homodimer in the crystal; The printed end of the C-terminal domain (E372) probably counts residues added by the XhoI site and vector before the His tag (surmised); also called Gto2; GHR ScECM4; source: E. coli Rosetta2 (DE3) pLysS, purified (Ni-NTA, gel filtration on Superdex 200); not shown: His6, C-terminal, kept
By stoichiometry N is commonly meant the number of molecules, sites or subunits per partner or assembly. For B1, the “stoichiometry N” value in data set [1] worked out at 2.

B2: glutathionylated ScECM4 (ScECM4-SG) (enzyme, Saccharomyces cerevisiae, UniProt P36156 1-370, looked up)
chain: T1 sequence (P36156 1-370)
modifications: glutathione covalently bound to C46 (mixed disulfide bond)
notes: ECM4 (Gto2), Saccharomyces cerevisiae, YKR076W; same construct as m1, glutathionylated at C46 after soaking or co-crystallisation with GS-menadione; Same construct as m1, with glutathione on C46; Homodimer in the crystal; source: E. coli Rosetta2 (DE3) pLysS, purified (Ni-NTA, gel filtration); crystals soaked with 5 mM GS-menadione; not shown: His6, C-terminal, kept
As to B2, the “stoichiometry N” value in data set [1] was determined as 2.

These data come from publication PMC5063366, “Crystal Structure of Saccharomyces cerevisiae ECM4, a Xi-Class Glutathione Transferase that Reacts with Glutathionyl-(hydro)quinones” (PLoS ONE, 2016).
